In PMC10127277 (2023):

Columns and labels:
Assay in all cases: SPR
RNF130-A1 = biological target: RNF130-A1
RNF43-A7 = biological target: RNF43-A7
ZNRF3-A10 = biological target: ZNRF3-A10

B1: human RNF130 (GOLIATH) extracellular domain (domain or fragment)
chain: DNASQEYYTALINVTVQEPGRGAPLTFRIDRGRYGLDSPKAEVRGQVLAPLPLHGVADHLGCDPQTRFFVPPNIKQWIALLQRGNCTFKEKISRAAFHNAVAVVIYNNKSKEEPVTMTHPGTGDIIAVMITELRGKDILSYLEKNISVQMTIAVGTRMPPKNFSRGS
modifications: biotinylated (BirA ligase)
RNF130-A1
  Kd: 8.2 nM

B2: human RNF43 extracellular domain (domain or fragment)
chain: GFGRTGLVLAAAVESERSAEQKAIIRVIPLKMDPTGKLNLTLEGVFAGVAEITPAEGKLMQSHPLYLCNASDDDNLEPGFISIVKLESPRRAPRPCLSLASKARMAGERGASAVLFDITEDRAAAEQLQQPLGLTWPVVLIWGNDAEKLMEFVYKNQKAHVRIELKEPPAWPDY
modifications: biotinylated (BirA ligase)
RNF43-A7
  Kd: 3.8 nM

B3: human ZNRF3 extracellular domain (domain or fragment)
chain: KETAFVEVVLFESSPSGDYTTYTTGLTGRFSRAGATLSAEGEIVQMHPLGLCNNNDEEDLYEYGWVGVVKLEQPELDPKPCLTVLGKAKRAVQRGATAVIFDVSENPEAIDQLNQGSEDPLKRPVVYVKGADAIKLMNIVNKQKVARARIQHRPPRQPTEYFDM
modifications: biotinylated (BirA ligase)
ZNRF3-A10
  Kd: 0.7 nM
